The record followed here is US20250002574A1 (SUNSHINE LAKE PHARMA, published 2025).

To fix the notation:
T1: IL-11 (UniProt P20809 22-199, limits assumed)
T1 construct: also called IL-11 protein; IL-11 antigen
T1 sequence (looked up): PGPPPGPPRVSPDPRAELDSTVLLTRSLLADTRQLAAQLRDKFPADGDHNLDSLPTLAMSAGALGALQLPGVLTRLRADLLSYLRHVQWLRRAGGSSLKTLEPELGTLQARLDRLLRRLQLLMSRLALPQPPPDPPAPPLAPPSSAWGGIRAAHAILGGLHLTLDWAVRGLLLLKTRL

B1: “VH1+VL3”-scFv (scFv)
scFv: QVQLVQSGAEVKKPGASVKVSCKASDYTFTNYWLGWVRQAPGQGLEWMGHIYPGGGYTNYNEKFKGRVTMTRDTSTSTVYMELSSLRSEDTAVYYCARVRSGNDALDFWGQGTLVTVSSGGGGSGGGGSGGGGSEIVLTQSPATLSLSPGERATLSCRASESVDEYGISFMNWFQQKPGQAPRLLIYSASNQGSGIPARFSGSGSGTDFTLTISSLEPEDFAVYFCQQSKEVPWTFGGGTKLEIK
B2: “VH3+VL4”-scFv (scFv)
scFv: B1 scFv with M48I, V68A, M70L, R72A, Y95F, V223M
B3: “VH4+VL1”-scFv (scFv)
scFv: B1 scFv with Q43H, M48I, V68A, M70L, R72A, Y95F, F174Y, F225Y
B4: “VH2+VL4”-scFv (scFv)
scFv: B1 scFv with M48I, R72A, Y95F, V223M
B5: “VH2+VL3”-scFv (scFv)
scFv: B1 scFv with M48I, R72A, Y95F
B6: “VH2+VL1”-scFv (scFv)
scFv: B1 scFv with M48I, R72A, Y95F, F174Y, F225Y
B7: “VH4+VL3”-scFv (scFv)
scFv: B1 scFv with Q43H, M48I, V68A, M70L, R72A, Y95F
B8: “VH4+VL2”-scFv (scFv)
scFv: B1 scFv with Q43H, M48I, V68A, M70L, R72A, Y95F, F174Y
B9: “VH3+VL2”-scFv (scFv)
scFv: B1 scFv with M48I, V68A, M70L, R72A, Y95F, F174Y
B10: “VH1+VL4”-scFv (scFv)
scFv: B1 scFv with V223M
B11: “VH1+VL1”-scFv (scFv)
scFv: B1 scFv with F174Y, F225Y
notes: CHO expression supernatant
B12: “VH3+VL1”-scFv (scFv)
scFv: B1 scFv with M48I, V68A, M70L, R72A, Y95F, F174Y, F225Y
B13: “VH4+VL4”-scFv (scFv)
scFv: B1 scFv with Q43H, M48I, V68A, M70L, R72A, Y95F, V223M
B14: “VH3+VL3”-scFv (scFv)
scFv: B1 scFv with M48I, V68A, M70L, R72A, Y95F
B15: “VH2+VL2”-scFv (scFv)
scFv: B1 scFv with M48I, R72A, Y95F, F174Y
B16: “VH1+VL2”-scFv (scFv)
scFv: B1 scFv with F174Y
B17: Original sequence (1H9) (scFv)
scFv: B1 scFv
notes: Template scFv of the phage library, on phage; also called ScFv VH-Linker-VL of VH1+VL3
B18: 1E12 (scFv)
scFv: B1 scFv with R100S, F108L, A189G, Q192E, Q227N
notes: As m119: scFv on phage
B19: 1F7 (scFv)
scFv: B1 scFv with G35A, L155V, R183T, Q192L
notes: As m119: scFv on phage
B20: 1F12 (scFv)
scFv: B1 scFv with R100S, G193A, V232L
notes: As m119: scFv on phage
B21: 2F2 (scFv)
scFv: B1 scFv with R100S, F108L, G122E
notes: As m119: scFv on phage
B22: 1F10 (scFv)
scFv: B1 scFv with F108I, S194D, E231D
notes: As m119: scFv on phage
B23: 1G11 (scFv)
scFv: B1 scFv with R100S, G193A, V232L
notes: As m119; the printed mutations are the same as those of 1F12
B24: 1A10 (scFv)
scFv: B1 scFv with R100S, V232Q
B25: 2E2 (scFv)
scFv: B1 scFv with R100S, V232L
notes: As m119: scFv on phage
B26: 2G9 (scFv)
scFv: B1 scFv with R100S, S188G, V232L
notes: As m119: scFv on phage
B27: 2F1 (scFv)
scFv: B1 scFv with R100S, V232L
notes: As m119; the printed mutations are the same as those of 2E2
B28: 2E7 (scFv)
scFv: B1 scFv with G54S, R100S, V232L
notes: As m119: scFv on phage
B29: 1F9 (scFv)
scFv: B1 scFv with T30H, R100S, V232L
notes: As m119: scFv on phage
B30: 1B1 (scFv)
scFv: B1 scFv with E10V, R72S, R87S, R158H
notes: As m119: scFv on phage
B31: 1G9 (scFv)
scFv: B1 scFv with K13Q, G131D, Q192R, S214N
notes: As m119: scFv on phage
B32: 5-20E11-5F2 (hybridoma subclone) (antibody, human IgG1, kappa, V domains shown)
VH: QVQLQQSGAELVRPGTSAKISCKASDYTFTNYWLGWLKQRPGHGLEWIGHIYPGGGYTNYNEKFKGKATLTADTSSSTAYMQLSSLTSEDSAVYFCARVRSGNDALDFWGQGTSVTVSS
VL: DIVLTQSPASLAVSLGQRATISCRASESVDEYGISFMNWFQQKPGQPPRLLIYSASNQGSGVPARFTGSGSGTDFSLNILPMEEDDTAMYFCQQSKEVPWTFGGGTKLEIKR
B33: 3-6A4 (hybridoma) (antibody, human IgG1, kappa, V domains shown)
VH: QIQLVQSGPELKKPGETVKISCKASGYTFTTNGINWVKQAAGKGLKWMGWINTNTGEPTNAEELKGRFAFSLETSASTAYLQINNLKNEDAAIYFCAREGAFGLDYWGQGTSVTVSS
VL: SIVMTQSPKFLLVSAGDRVIITCKASQSVSNDVVWYQQKPGQSPKLLIYYGSHRNTGVPTRFTGSGYGTDFTFTISTVQAEDLAVYFCQQDFFSPWTFGGGTKLEIKR
notes: only the variable parts apply for certain
B34: 3-5B2-2G4 (antibody, human IgG1, kappa, V domains shown)
VH: QIQLVQSGPELKKPGETVKISCKASGYTFTNYGMNWVKQAPGKGLKWMGWINTNTGEPTYAEEIKGRFAFSLETSASTAYLQINNLKNEDTATYFCSREGIYGMDSWGQGTSVTVSS
VL: B33 VL with S7T, I20T, Q37R, G51A, H53N, N55Y, T56I, T60D, F92Y, F93Y
B35: 5-20E11-1A2 (antibody, V domains shown)
VH: QVQLQQPGAELVRPGTSVKMSCKASGYTFTSYWMHWVKQRPGQGLEWIGDIYPGSDSTNYHEKFKSKATLTVDTSSSTAYMQLSSLTSEDSAVYYCALDSSGYGFAYWGQGTLVTVSA
VL: NIVMTQTPKFLLVSAGDRVTITRKASQSVSNDVVWYQQKPGQSPKLLMYYASYRYTGVPDRFTGSGYGTDFTFTISNVQAEDLAVYFCQQDYSSPFTFGSGTKLEIK

Positions count from the first letter of the chain named.

One test has as its target T1, IL-11. Nature of the test: SPR Biacore, scFv captured, IL-11 400 nM. As for the experimental part:
The measure method included the steps of capturing the humanized single-chain antibody at a flow rate of 10 uL/min. […] Finally, the chip was regenerated with 10 mM glycine buffer.
(SPR reads the build-up and loss of mass on a sensor chip optically.)
Regarding B1, the Kd is 12.3 nM, the koff is 0.000436 s⁻¹ and the kon came out at 35500 M⁻¹ s⁻¹.

In turn, B2 registered a Kd of 13.3 nM, a koff of 0.000556 s⁻¹ and a kon of 41800 M⁻¹ s⁻¹.

Take B3: the Kd turned out to be 17.2 nM, the koff was determined as 0.00084 s⁻¹ and the kon was determined as 48900 M⁻¹ s⁻¹.

Molecule B4 yielded a Kd of 10.8 nM, a koff of 0.000528 s⁻¹ and a kon of 48800 M⁻¹ s⁻¹.

Regarding B5, the Kd was 11.9 nM, the koff is 0.000541 s⁻¹ and the kon was found to be 45600 M⁻¹ s⁻¹.

The molecule B6 returned a Kd of 16.7 nM, a koff of 0.00089 s⁻¹ and a kon of 53400 M⁻¹ s⁻¹.

Take B7: binding was characterised by a dissociation constant (Kd) of 11.2 nM, the koff was found to be 0.000516 s⁻¹ and the kon was found to be 46100 M⁻¹ s⁻¹.

Turning to B8, the Kd was 11.1 nM, the koff was found to be 0.000614 s⁻¹ and the kon amounted to 55200 M⁻¹ s⁻¹.

As to B9, the affinity, expressed as Kd, was 14.6 nM; the koff came to 0.00068 s⁻¹; the kon was 46500 M⁻¹ s⁻¹.

B10 showed a Kd of 11.7 nM, a koff of 0.000387 s⁻¹ and a kon of 33100 M⁻¹ s⁻¹.

In the case of B11, the Kd came out at 21.6 nM, the koff turned out to be 0.000758 s⁻¹ and the kon was 35100 M⁻¹ s⁻¹.

In turn, B12 showed a Kd of 22.5 nM, a koff of 0.001 s⁻¹ and an association rate constant (kon) of 44500 M⁻¹ s⁻¹.

As for B13, the Kd is 10 nM, the koff turned out to be 0.000481 s⁻¹ and the kon came out at 47900 M⁻¹ s⁻¹.

Take B14: the Kd is 9.76 nM, the koff is 0.000464 s⁻¹ and the kon came out at 47600 M⁻¹ s⁻¹.

With B15, the Kd was found to be 17.8 nM, the koff came out at 0.000812 s⁻¹ and the kon was found to be 45700 M⁻¹ s⁻¹.

B16 returned a Kd of 11.2 nM, a koff of 0.000461 s⁻¹ and a kon of 41300 M⁻¹ s⁻¹.

The target of another test is T1, IL-11. Nature of the test: phage ELISA on IL-11. (ELISA stands for enzyme-linked immunosorbent assay.)
As to B17, the ELISA came to 1.16.

In turn, B18 came in with an ELISA of 2.2.

In the case of B19, the ELISA is 2.38.

B20 had an ELISA of 2.59.

In turn, B21 had an ELISA of 2.65.

Take B22: the ELISA came to 2.6.

Turning to B23, the ELISA is 2.58.

In turn, B24 registered an ELISA of 2.06.

Consider B25, for which the ELISA turned out to be 2.58.

On to B26, for which the ELISA is 2.09.

With B27, the ELISA was 2.1.

With B28, the ELISA was determined as 2.19.

Take B29: the ELISA was 2.59.

Consider B30, for which the ELISA was 1.46.

B31 gave an ELISA of 2.81.

Another test addresses T1, IL-11. In words: flow cytometry of phage clone; cells not given. (In flow cytometry, cells or beads pass a laser one at a time.)
B17: the “Flow (Mean)” value amounted to 450 mean fluorescence.

Regarding B18, the “Flow (Mean)” value worked out at 6320 mean fluorescence.

Consider B19, for which the “Flow (Mean)” value worked out at 1860 mean fluorescence.

Turning to B20, the “Flow (Mean)” value is 4140 mean fluorescence.

B21: the “Flow (Mean)” value was 2000 mean fluorescence.

In the case of B22, the “Flow (Mean)” value is 2640 mean fluorescence.

With B23, the “Flow (Mean)” value amounted to 2900 mean fluorescence.

Turning to B24, the “Flow (Mean)” value was 2200 mean fluorescence.

With B25, the “Flow (Mean)” value was 2100 mean fluorescence.

B26: the “Flow (Mean)” value was 1910 mean fluorescence.

On to B27, for which the “Flow (Mean)” value was 2390 mean fluorescence.

On to B28, for which the “Flow (Mean)” value turned out to be 1990 mean fluorescence.

On to B29, for which the “Flow (Mean)” value was 3820 mean fluorescence.

B30: the “Flow (Mean)” value is 3500 mean fluorescence.

Turning to B31, the “Flow (Mean)” value was 2240 mean fluorescence.

Another test addresses T1, IL-11. Nature of the test: ELISA on IL-11, monoclonal hybridoma antibody.
The molecule B32 showed an OD450 of 1.6 OD450.

In the case of B33, the OD450 amounted to 1.58 OD450.

As for B34, the OD450 was found to be 1.65 OD450.

Regarding B35, the OD450 stood at 1.63 OD450.

For a further test, the target named is T1, IL-11. In words: flow, IL-11 + antibody on IL-11R cells; lower = more blocking.
For the molecule B32, the “FITC Mean” value was determined as 3110 mean fluorescence.

For the molecule B33, the “FITC Mean” value is 3040 mean fluorescence.

For B34, the “FITC Mean” value was 19800 mean fluorescence.

Turning to B35, the “FITC Mean” value turned out to be 3640 mean fluorescence.

For orientation: Kd means the constant that tells how readily two partners part at equilibrium. What is called koff is the rate constant with which the complex falls apart. What is called kon is the rate constant with which the complex forms.
